Results taken from patent publication US20110142851A1 (EMERGENT PRODUCT DEVELOPMENT SEATTLE, published 2011).

Key:
[1] = target: T1, hu HIL6 Fc dimer (dimeric human HIL6/mouse IgG Fc fusion protein) (human); assay: SPR Biacore T100, binder captured by anti-human Fc
T1 construct: also called human hyper-IL6 (IL6R-IL6-mIgG); dimeric HIL6
T1 chain: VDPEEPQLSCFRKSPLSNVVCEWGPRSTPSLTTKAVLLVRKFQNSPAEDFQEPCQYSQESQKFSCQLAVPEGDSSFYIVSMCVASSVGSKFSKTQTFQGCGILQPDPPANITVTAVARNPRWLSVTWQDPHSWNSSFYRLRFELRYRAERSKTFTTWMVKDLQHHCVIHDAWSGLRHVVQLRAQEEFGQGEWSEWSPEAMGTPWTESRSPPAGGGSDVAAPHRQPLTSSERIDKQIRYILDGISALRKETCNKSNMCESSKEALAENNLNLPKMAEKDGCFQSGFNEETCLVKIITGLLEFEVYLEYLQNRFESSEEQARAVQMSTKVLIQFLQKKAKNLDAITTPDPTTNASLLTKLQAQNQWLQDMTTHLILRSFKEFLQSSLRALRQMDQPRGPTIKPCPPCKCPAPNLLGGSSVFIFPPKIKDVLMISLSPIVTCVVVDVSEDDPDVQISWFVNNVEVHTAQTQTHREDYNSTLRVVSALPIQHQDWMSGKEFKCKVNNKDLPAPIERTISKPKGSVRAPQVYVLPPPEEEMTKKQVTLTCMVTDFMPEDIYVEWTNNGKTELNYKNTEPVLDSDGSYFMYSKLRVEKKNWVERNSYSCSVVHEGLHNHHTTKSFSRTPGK

[2] = target: T2, recombinant human IL6 (human, UniProt P05231 30-212); assay: SPR Biacore T100, binder captured by anti-human Fc
T2 construct: also called rhIL6; IL6 monomer

[3] = target: T3, hu HIL6 AFH monomer (human); assay: SPR Biacore T100, binder captured by anti-human Fc
T3 chain: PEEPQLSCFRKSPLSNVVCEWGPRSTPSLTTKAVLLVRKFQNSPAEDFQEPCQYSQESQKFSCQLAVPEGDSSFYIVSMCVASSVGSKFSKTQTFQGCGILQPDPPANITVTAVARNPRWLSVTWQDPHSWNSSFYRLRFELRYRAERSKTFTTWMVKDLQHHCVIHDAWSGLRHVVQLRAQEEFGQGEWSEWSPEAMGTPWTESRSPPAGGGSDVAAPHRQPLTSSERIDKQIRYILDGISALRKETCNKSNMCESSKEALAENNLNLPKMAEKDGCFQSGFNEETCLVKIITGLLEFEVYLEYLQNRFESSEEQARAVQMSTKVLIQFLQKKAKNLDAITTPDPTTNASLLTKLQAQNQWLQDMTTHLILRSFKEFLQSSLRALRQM

[4] = target: T4, sIL6R Fc dimer (UniProt P08887 20-358, limits assumed); assay: SPR Biacore T100, binder captured by anti-human Fc
T4 construct: not shown: Fc
T4 sequence (looked up): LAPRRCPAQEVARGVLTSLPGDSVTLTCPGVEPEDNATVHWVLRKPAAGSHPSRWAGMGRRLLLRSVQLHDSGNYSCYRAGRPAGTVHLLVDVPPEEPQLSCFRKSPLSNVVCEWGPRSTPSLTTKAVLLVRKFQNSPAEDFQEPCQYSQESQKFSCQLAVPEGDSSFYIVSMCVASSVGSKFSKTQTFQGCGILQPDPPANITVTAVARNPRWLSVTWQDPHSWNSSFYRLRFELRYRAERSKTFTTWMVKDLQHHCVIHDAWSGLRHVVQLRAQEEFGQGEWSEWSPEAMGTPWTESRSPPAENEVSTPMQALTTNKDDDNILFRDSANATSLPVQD

[5] = target: T2, recombinant human IL6; assay: SPR Biacore, mAb captured by anti-mouse Fc, single cycle kinetics
[6] = target: T5, Hyper-IL6 (human); assay: SPR Biacore, mAb captured by anti-mouse Fc, HIL6 injected
T5 chain: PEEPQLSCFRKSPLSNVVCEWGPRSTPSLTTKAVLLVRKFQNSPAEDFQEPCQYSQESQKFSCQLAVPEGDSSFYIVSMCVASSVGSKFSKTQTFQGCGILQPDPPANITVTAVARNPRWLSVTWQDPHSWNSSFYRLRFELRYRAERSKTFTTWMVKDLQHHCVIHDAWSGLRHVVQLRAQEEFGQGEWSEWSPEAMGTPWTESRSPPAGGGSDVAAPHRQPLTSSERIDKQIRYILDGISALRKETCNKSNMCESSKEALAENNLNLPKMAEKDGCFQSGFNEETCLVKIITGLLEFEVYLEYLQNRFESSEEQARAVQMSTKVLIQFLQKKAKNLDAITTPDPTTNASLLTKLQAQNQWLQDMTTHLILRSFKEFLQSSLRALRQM

[7] = target: T2, recombinant human IL6; assay: SPR Biacore, binder captured by anti-human Fc, single cycle kinetics
Method: (§1) Anti-IL6 binding domains were captured using immobilized anti-mouse Fc polyclonal antibody in the case of anti-IL6 antibodies, or an anti-human Fc monoclonal in the case of SMIPs, Xceptors, and humanized SMIPs. IL6 binding to the anti-IL6 binding domains was studied using single cycle kinetics. Five sequential injections of IL6 were made per cycle starting with the lowest concentration of IL6 (6.4 pM) and progressing to the highest concentration (4,000 pM). The flow rate was 45 μL per minute and each injection of IL6 lasted 7 minutes. At the end of the highest IL6 concentration injection, IL6 was allowed to dissociate for 30 minutes. The data were fit to a one-to-one binding single cycle kinetics model. HIL6 binding was studied by injecting a single concentration of HIL6 (from 6.4-4,000 pM) per cycle for 7 minutes, and then allowing the bound HIL6 to dissociate for either 30 seconds (0 to 800 pM) or one hour (0 and 4,000 pM). […] All analysis was performed using BIAevaluation software.

[8] = target: T5, Hyper-IL6; assay: SPR Biacore, binder captured by anti-human Fc, HIL6 injected
Method: as §1

B1: TRU(XT6)-1025 (Fc fusion)
chain: LPAQVAFTPYAPEPGSTCRLREYYDQTAQMCCSKCSPGQHAKVFCTKTSDTVCDSCEDSTYTQLWNWVPECLSCGSRCSSDQVETQACTREQNRICTCRPGWYCALSKQEGCRLCAPLRKCRPGFGVARPGTETSDVVCKPCAPGTFSNTTSSTDICRPHQICNVVAIPGNASMDAVCTSTSPTRSMAPGAVHLPQPVSTRSQHTQPTPEPSTAPSTSFLLPMGPSPPAEGSTGDTGEPKSSDKTHTCPPCPAPEAAGAPSVFLFPPKPKDTLMISRTPEVTCVVVDVSHEDPEVKFNWYVDGVEVHNAKTKPREEQYNSTYRVVSVLTVLHQDWLNGKAYACAVSNKALPAPIEKTISKAKGQPREPQVYTLPPSRDELTKNQVSLTCLVKGFYPSDIAVEWESNGQPENNYKTTPPVLDSDGSFFLYSKLTVDKSRWQQGNVFSCSVMHEALHNHYTQKSLSLSPGQRHNNSSLNTRTQKARHSPNSEVQLLESGGGLVQPGGSLRLSCAASGFTFSHYGMHWVRQAPGKGLEWVSSIYPGMTQYADSVKGRFTISRDNSKNTLYLQMNSLRAEDTAVYYCARDRGSGIDAFDIWGQGTMVTVSSGGGGSGGGGSGGGGSQSELTQPPSVSVSPGQTATVSCSGEKLGDRYAWWYQQKAGQSPVLVIYQDTKRPSGVPDRFSGSNSGTSASLVISGPQSEDEADYYCAAWDDSLKGVVFGGGSKLTVL
notes: Xceptor, TNFRSF1B ectodomain N-terminal, anti-IL6xR domain C-terminal
- Kd [1]: 25 nM
- binding result [2]: no binding (tested: 100 nM)
- Kd [3]: 6.3 nM

B2: TRU(XT6)-1029 (Fc fusion)
chain: LPAQVAFTPYAPEPGSTCRLREYYDQTAQMCCSKCSPGQHAKVFCTKTSDTVCDSCEDSTYTQLWNWVPECLSCGSRCSSDQVETQACTREQNRICTCRPGWYCALSKQEGCRLCAPLRKCRPGFGVARPGTETSDVVCKPCAPGTFSNTTSSTDICRPHQICNVVAIPGNASMDAVCTSTSPTRSMAPGAVHLPQPVSTRSQHTQPTPEPSTAPSTSFLLPMGPSPPAEGSTGDTGEPKSSDKTHTCPPCPAPEAAGAPSVFLFPPKPKDTLMISRTPEVTCVVVDVSHEDPEVKFNWYVDGVEVHNAKTKPREEQYNSTYRVVSVLTVLHQDWLNGKAYACAVSNKALPAPIEKTISKAKGQPREPQVYTLPPSRDELTKNQVSLTCLVKGFYPSDIAVEWESNGQPENNYKTTPPVLDSDGSFFLYSKLTVDKSRWQQGNVFSCSVMHEALHNHYTQKSLSLSPGQRHNNSSLNTRTQKARHSPNSEVQLLESGGGLVQPGGSLRLSCAASGFTFSSYWMHWVRQAPGKGLEWVSSIYPSGGSTEYADSVKGRFTISRDNSKNTLYLQMNSLRAEDTAVYYCAKGIWFDPWGQGTLVTVSSGGGGSGGGGSGGGGSQDIQMTQSPATLSASVGDRVTITCRSSQRISGYLNWYQQQPGKAPKLLIYAASTLQSGVPSRISGSGSGTDFSLIISSLQPEDVATYYCQQSYSPPFTFGQGTKVEIK
notes: as for B1
- Kd [1]: 49 nM
- binding result [4]: no binding (tested: 100 nM)
- binding result [2]: no binding (tested: 100 nM)
- Kd [3]: 3000 nM

B3: AH-65 mAb (antibody, V domains shown)
VH: EVQLVESGGGLVQPKGTLRLSCAASGFSFNTYAMNWVRQAPGKSLEWVARTVTKSNKYATYYADSVSDRVTISREDSQSMLYLQMTNLKTEDTAMYYCVREDYYGTLDYWGQGTSVTVSS
VL: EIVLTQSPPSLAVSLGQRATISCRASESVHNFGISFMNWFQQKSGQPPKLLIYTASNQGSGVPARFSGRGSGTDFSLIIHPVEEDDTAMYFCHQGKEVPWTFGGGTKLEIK
- Kd [5]: 0.007 nM
- koff [5]: 2.2e-05 s⁻¹
- kon [5]: 3.2e+06 M⁻¹ s⁻¹
- Kd [6]: 0.012 nM
- koff [6]: 2.4e-05 s⁻¹
- kon [6]: 2e+06 M⁻¹ s⁻¹

B4: TRU(S6)-1063 (Fc fusion)
VH: EVQLVESGGGLVQPGGSLRLSCAASGFTFNTYAMNWVRQAPGKGLEWVGRTVTKSNKYATYYADSVSDRFTISRDDSKNSLYLQMNSLKTEDTAVYYCAREDYYGTLDYWGQGTLVTVSS
VL: EIVLTQSPATLSLSPGERATLSCRASESVHNFGISFMNWYQQKPGQAPRLLIYTASNQGSGIPARFSGSGSGTDFTLTISSLEPEDFAVYYCHQGKEVPWTFGQGTKVEIK
notes: Humanized SMIP fusion protein (single chain)
- Kd [7]: 0.051 nM
- koff [7]: 0.00019 s⁻¹
- kon [7]: 3.9e+06 M⁻¹ s⁻¹
- Kd [8]: 0.05 nM
- koff [8]: 0.00018 s⁻¹
- kon [8]: 3.6e+06 M⁻¹ s⁻¹
